Data published in paper PMC3404065.

Columns and labels:
[1] = biological target: F-actin polymerised from purified G-actin (Cytoskeleton APHL99-A) (UniProt P60709); assay: co-sedimentation; supernatant-depletion method, equilibrium binding to ATP/ADP-Pi-F-actin (filaments from ATP-G-actin); GST-ABD left in the supernatant by anti-GST immunoblot and densitometry; room temperature
[2] = biological target: F-actin polymerised from purified G-actin (Cytoskeleton APHL99-A) (UniProt P60709); assay: co-sedimentation; supernatant-depletion method, equilibrium binding to ADP-F-actin (filaments from ADP-G-actin made with 20 U/mL hexokinase and 1 mM glucose); GST-ABD left in the supernatant by anti-GST immunoblot and densitometry
[3] = biological target: F-actin polymerised from purified G-actin (Cytoskeleton APHL99-A) (UniProt P60709); assay: co-sedimentation; high-speed F-actin co-sedimentation; F-actin polymerised from Mg-ATP-G-actin (50 mM KCl, 1 mM MgCl2, 1 mM ATP); 30 min at room temperature, Airfuge ~100,000 x g 30 min; supernatant and pellet on SDS-PAGE, Coomassie Blue or silver stain

Kd [1]: 53 nM
Kd [2]: 4700 nM
stoichiometry N ([3]; scale: actin per GST-ABD): 1.4
stoichiometry N ([3]; scale: ratio GST-ABD to actin, after correction for the 15-20% GST cleavage product): 1
Substance: GST-TEM4 81-135 (GST-ABD) (from UniProt Q96PE2 81-135) (domain or fragment)
